Columns and labels:
[1] = target: T1, mouse ROBO4 (pCI-mROBO4-transfected HEK293 cells) (mouse, UniProt Q8C310 28-1012); test: flow cytometry (FC500), HEK293 cells transfected with pCI-mROBO4, FITC goat anti-human IgG Fc; control histogram IgG (human IgG)
T1 sequence: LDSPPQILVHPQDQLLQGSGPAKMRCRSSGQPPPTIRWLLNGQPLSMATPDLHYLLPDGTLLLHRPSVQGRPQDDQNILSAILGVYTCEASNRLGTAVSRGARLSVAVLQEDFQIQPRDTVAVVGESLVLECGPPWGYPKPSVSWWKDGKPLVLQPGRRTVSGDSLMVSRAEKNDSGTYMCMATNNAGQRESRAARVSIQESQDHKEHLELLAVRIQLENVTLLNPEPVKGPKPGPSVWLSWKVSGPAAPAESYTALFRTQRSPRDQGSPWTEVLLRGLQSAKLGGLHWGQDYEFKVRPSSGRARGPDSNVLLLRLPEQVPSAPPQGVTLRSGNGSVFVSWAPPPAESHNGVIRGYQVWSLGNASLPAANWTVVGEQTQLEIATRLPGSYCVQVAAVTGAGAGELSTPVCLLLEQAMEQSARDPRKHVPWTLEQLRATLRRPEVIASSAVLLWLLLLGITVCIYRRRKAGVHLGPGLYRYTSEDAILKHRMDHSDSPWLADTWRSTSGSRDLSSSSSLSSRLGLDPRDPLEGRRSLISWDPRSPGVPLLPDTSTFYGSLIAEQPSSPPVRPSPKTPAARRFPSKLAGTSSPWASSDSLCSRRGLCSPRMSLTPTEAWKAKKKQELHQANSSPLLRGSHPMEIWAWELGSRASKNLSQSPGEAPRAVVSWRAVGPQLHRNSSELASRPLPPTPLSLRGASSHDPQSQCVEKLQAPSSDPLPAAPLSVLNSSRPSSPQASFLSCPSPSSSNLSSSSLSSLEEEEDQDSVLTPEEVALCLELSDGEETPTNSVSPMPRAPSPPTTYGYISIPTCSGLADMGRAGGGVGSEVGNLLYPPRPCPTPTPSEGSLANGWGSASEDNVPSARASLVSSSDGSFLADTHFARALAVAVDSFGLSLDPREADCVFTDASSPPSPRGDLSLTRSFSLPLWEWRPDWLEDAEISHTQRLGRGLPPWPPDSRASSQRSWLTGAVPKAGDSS

[2] = target: T2, rat ROBO4 (pCI-raROBO4-transfected HEK293 cells) (rat, UniProt Q80W87 38-949 at identity 0.93)); test: flow cytometry (FC500), HEK293 cells transfected with pCI-raROBO4, FITC goat anti-human IgG Fc; control histogram IgG (human IgG)
T2 chain: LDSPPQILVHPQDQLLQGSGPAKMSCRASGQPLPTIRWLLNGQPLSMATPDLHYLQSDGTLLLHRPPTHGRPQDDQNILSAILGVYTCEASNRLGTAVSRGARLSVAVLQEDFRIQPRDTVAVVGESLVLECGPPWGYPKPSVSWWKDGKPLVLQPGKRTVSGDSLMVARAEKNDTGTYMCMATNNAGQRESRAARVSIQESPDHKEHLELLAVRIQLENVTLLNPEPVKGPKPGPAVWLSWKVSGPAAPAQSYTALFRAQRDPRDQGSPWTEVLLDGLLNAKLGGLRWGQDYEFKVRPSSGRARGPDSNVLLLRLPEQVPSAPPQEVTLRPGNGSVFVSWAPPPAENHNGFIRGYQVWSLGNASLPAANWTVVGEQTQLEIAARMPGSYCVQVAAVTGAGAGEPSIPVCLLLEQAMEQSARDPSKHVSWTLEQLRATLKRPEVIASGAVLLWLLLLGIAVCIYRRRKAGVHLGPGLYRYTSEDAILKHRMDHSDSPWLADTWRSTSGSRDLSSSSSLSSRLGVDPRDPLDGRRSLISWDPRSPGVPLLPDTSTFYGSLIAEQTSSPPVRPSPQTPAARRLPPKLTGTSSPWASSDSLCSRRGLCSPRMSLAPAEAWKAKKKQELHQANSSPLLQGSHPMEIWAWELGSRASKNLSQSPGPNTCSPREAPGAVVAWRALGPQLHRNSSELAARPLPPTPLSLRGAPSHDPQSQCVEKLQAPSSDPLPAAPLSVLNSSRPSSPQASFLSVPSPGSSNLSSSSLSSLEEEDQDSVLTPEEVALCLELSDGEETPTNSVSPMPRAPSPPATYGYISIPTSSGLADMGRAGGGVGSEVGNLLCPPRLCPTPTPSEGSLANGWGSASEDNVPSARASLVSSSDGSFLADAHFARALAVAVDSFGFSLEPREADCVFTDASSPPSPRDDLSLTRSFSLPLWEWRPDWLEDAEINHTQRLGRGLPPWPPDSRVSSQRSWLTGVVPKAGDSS

binding result [1]: no binding (tested: 10 µg/mL) | binding result [2]: no binding (tested: 10 µg/mL)
B1: humanized MAb1 antibody H-1143 (antibody, human IgG2, kappa, V domains shown)
VH: EVQLVESGGGLVQPGGSLRLSCAASGFTFSTYAMSWVRQAPGKGLEWVATISQGGTYTYYPDSVKGRFTISRDNAKNTLYLQMNSLRAEDTAVYYCARLIYYDYLDYWGQGTLVTVSS
VL: DIVMTQSPLSLPVTLGEPASISCRSSQSLENENKNLYLNWYLQKPGQSPQLLIYRVSNRFSGVPDRFSGSGSGTDFTLKISRVEAEDVGVYYCLQVTHVPWTFGPGTKVDIKR
notes: Human IgG2 / kappa constant regions; also called hMAb1-H2-type heavy chain + hMAb1-L2-type light chain
